Molecular target: LgB-NIX (NIX with Large BiT at its N-terminal end) (UniProt O60238 1-219)
Experiment: split reporter

Chain of LgB-NIX (NIX with Large BiT at its N-terminal end) (O60238 whole entry): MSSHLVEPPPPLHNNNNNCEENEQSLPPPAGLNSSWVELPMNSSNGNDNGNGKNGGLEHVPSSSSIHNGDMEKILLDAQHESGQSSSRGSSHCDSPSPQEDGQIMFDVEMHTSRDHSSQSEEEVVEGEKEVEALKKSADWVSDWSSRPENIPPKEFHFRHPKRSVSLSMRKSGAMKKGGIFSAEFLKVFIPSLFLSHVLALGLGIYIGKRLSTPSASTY

B1: vIRF-1-SmB (vIRF-1 with Small BiT at its C-terminal end) (natural protein)
chain: MDPGQRPNPFGAPGAIPKKPCLSQGSPGTSGSGAPCDEPSRSESPGEGPSGTGGSAAAGDITRQAVVAAITEWSRTRQLRISTGASEGKASIKDWIVCQVNSGKFPGVEWEDEERTRFRIPVTPLADPCFEWRRDGELGVVYIRERGNMPVDASFKGTRGRRRMLAALRRTRGLQEIGKGISQDGHHFLVFRVRKPEEEQCVECGVVAGAVHDFNNMARLLQEGFFSPGQCLPGEIVTPVPSCTTAEGQEAVIDWGRLFIRMYYNGEQVHELLTTSQSGCRISSALRRDPAVHYCAVGSPGQVWLPNVPNLACEIAKRELCDTLDACAKGILLTSSCNGIFCVCYHNGPVHFIGNTVPPDSGPLLLPQGKPTRIFNPNTFLVGLANSPLPAPSHVTCPLVKLWLGKPVAVGKLEPHAPSPRDFAARCSNFSDACVVLEIMPKPLWDAMQ
B1 was tested, and the “fold luminescence over HT-SmB with LgB-NIX” value was 10 fold.
